For five substances, Kd results are on record in publication PMC4868954.

The experiment deals with complement component C3b (human) (UniProt P01024). Kind of experiment: SPR. Background: SPR reads the build-up and loss of mass on a sensor chip optically.

Take “membrane-cofactor protein MCP CCP1–4 (residues 35–285), from E. coli (from UniProt P15529 35-285) (domain or fragment)”: the Kd – broadly, the free concentration of one partner at which half of the binding sites on the other are occupied at equilibrium, for simple one-to-one binding – stood at 0.35 µM. This counts as sub-micromolar.

Consider factor H FH CCP1–4 (domain or fragment), for which the Kd was determined as 7.2 µM. Compared with the last substance, the Kd is about 21-fold higher.

“decay-accelerating factor DAF CCP1–4 (domain or fragment)” yielded a Kd of 6.1 µM.

The substance “smallpox inhibitor of complement enzymes, SPICE CCP1–4 (residues 19–263) (natural protein)” returned a Kd of 1.3 µM.

As to “complement receptor 1 CR1 CCP15–17 (residues 942–1,136) (from UniProt P17927 942-1136) (domain or fragment)”, the Kd was determined as 1.9 µM.
